According to patent US20210101947A1 (UNIVERSITY OF SASKATCHEWAN, published 2021):
Primed or numbered codes have the meaning given here. No end group written: not given here. FITC′ = not defined here

Molecular target: T1, TAT2 cell penetrating peptide
T1 construct: Synthesized; two copies of a 9 amino acid TAT peptide
T1 peptide: RKKRRQRRRRKKRRQRRR
Assay: peptides mixed; uptake into MDA-MB-231 cells seen by fluorescence microscopy
Method: B. Using 0.1 mg/ml C43-4-FITC, weak toxicity is only observed when combined with TAT2, which is worsened with DOX. An equal number of cells were treated with TAT2 and C43-4-FITC alone or in complex, +/−0.5 uM DOX. 24 hours later, 4 random fields of cells were counted and combined. C. MDA-MB-231 cells were treated with 0.001 mg/ml peptide/TAT2 complex for 12 hours, or left untreated. Lysates were prepared and assessed with the antibodies shown. Cyclin B—APC substrate; the PARP […] cleavage fragment is an early sign of apoptosis; induction of total PARP indicates DNA damage; TFPI1 is a nucleolar MDR marker. D. Mice growing MDA-MB-231 cells stably expressing pcDNA-C43-4, injected or left untreated, with the C43-4-FITC/TAT2 complex (n=2 each). 100 ul of 0.01 mg/ml C43-4-FITC peptide was mixed with 25 ul of 1 mg/ml TAT2. The entire 125 ul was given to the mouse using an intraperitoneal (IP) injection. 1 injection/mouse was given in this experiment.
The 20 amino acid C43-4 peptide was synthesized with a C-terminal FITC epitope to allow visualization of the peptide within the cell using fluorescent microscopy. The TAT2 cell penetrating peptide, encoding 2 copies of a 9 amino acid peptide ([…]; SEQ ID NO: 26) was also synthesized. […] After 24 hours, and prior to imaging, 4 independent microscope fields were counted for each sample and added together to get a total cell number. […]

B1: C43-4-FITC (peptide)
peptide: NGSSHNDLRVRRLTLISRLC-{FITC′}
notes: The synthesized 20 amino acid C43-4 peptide with a C-terminal FITC; also called C43-4-FITC peptide
binding result: binds
